According to patent US20120100530:

Target: T1, EcoExo I C98S/C306S/C330T (ONLD0366) C98S/C306S/C330T (Escherichia coli) (UniProt P04995)
T1 sequence: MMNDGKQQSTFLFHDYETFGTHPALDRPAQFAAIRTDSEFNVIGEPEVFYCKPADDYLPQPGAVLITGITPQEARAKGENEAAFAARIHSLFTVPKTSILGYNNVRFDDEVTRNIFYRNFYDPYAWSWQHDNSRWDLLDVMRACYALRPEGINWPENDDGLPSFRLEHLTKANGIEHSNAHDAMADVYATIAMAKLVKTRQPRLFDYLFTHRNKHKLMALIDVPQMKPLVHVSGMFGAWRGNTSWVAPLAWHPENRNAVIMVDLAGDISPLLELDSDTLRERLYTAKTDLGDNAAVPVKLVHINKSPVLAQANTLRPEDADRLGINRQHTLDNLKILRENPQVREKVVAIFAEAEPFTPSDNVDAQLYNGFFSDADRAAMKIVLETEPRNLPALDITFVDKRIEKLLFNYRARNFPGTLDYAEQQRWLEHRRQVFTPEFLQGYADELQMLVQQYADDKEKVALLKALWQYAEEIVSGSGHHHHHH
Assay: cleavage_in_vitro
Settings: fluorescein-dT at position 15, BHQ1 on dT at position 1; relative activity of mutants stated higher than wild type

Exo I assay DNA template
activity (relative to wild type): > 1
